Assay [1] addresses clumping factor A (ClfA wild type) on S. aureus ClfA+ cells (S. aureus) (UniProt Q53653). As to the kind of experiment: AFM single-molecule force spectroscopy; vWbp-modified tips probing ClfA+ cells; contact time 500 ms before retraction; PBS.
For assay [2] the target is unchanged. Briefly: AFM single-molecule force spectroscopy; vWbp-modified tips probing ClfA+ cells; minimum contact time (~100 ms); PBS.
Assay [3] addresses von Willebrand factor-binding protein (recombinant vWbp) (S. aureus). Briefly: AFM single-molecule force spectroscopy; vWF-modified tips probing vWbp-modified gold supports (NHS/EDC coupling); PBS; 10 µm x 10 µm areas.

On to “von Willebrand factor-binding protein (recombinant vWbp) (natural protein)”, for which the binding frequency stood at 11% in assay [1] and 3% in assay [2]. For the same substance, in assay [1], the rupture force came to 446 pN.
As for “von Willebrand factor (human plasma vWF) (from UniProt P04275 764-2813) (natural protein)”, in assay [3], the binding frequency stood at 24% and the rupture force was 136 pN.

The values are drawn from PMC8041789.
